Patent publication US8334260B2, “sFRP and peptide motifs that interact with sFRP and methods of their use” (The United States of America as represented by the …, priority 2001, dated 2012)

B1: sFRP-2: recombinant mouse sFRP-2 purified from transfected MDCK cells (protein)
chain: LFLFGQPDFSYKRSNCKPIPANLQLCHGIEYQNMRLPNLLGHETMKEVLEQAGAWIPLVMKQCHPDTKKFLCSLFAPVCLDDLDETIQPCHSLCVQVKDRCAPVMSAFGFPWPDMLECDRFPQDNDLCIPLASSDHLLPATEEAPKVCEACKTKNEDDNDIMETLCKNDFALKIKVKEITYINRDTKIILETKSKTIYKLNGVSERDLKKSVLWLKDSLQCTCEEMNDINAPYLVMGQKQGGELVITSVKRWQKGQREFKRISRSIRKLQC
B2: bacterially expressed CRD: cysteine-rich domain of sFRP-1, residues 38-166, expressed in bacteria (protein)
chain: FQSDIGPYQSGRFYTKPPQCVDIPADLRLCHNVGYKKMVLPNLLEHETMAEVKQQASSWVPLLNKNCHAGTQVFLCSLFAPVCLDRPIYPCRWLCEAVRDSCEPVMQFFGFYWPEMLKCDKFPEGDVCI
B3: sFRP-1: recombinant human secreted Frizzled-related protein-1 (protein, listed as Homo sapiens)
chain: MGIGRTEGGRRGAALGVLLALGGASGRGLGSEYDYVSFQSDIGPYQSGRFYTKPPQCVDIPADLRLCHNVGYKKMVLPNLLEHETMAEVKQQASSWVPLLNKNCHAGTQVFLCSLFAPVCLDRPIYPCRWLCEAVRDSCEPVMQFFGFYWPEMLKCDKFPEGDVCIAMTPPNATEASKPQGTTVCPPCDNELKSEAIIEHLCASEFALRMKIKEVKKENGDKKIVPKKKKPLKLGPIKKKDLKKLVLYLKNGADCPCHQLDNLSHHFLIMGRKVKSQYLLTAIHKWDKKNKEFKNFMKKMKNHECPTFQSVFK

How the values were obtained:
[1] = molecular target: T1, RANKL (Homo sapiens, UniProt O14788); assay: ELISA of soluble RANKL binding to wells coated with sFRP-1, sFRP-1 derivatives or sFRP-2; details: ELISA, coated wells versus BSA
T1 construct: For ELISA assays, recombinant soluble RANKL and TRAIL, and antibodies directed against these proteins were obtained from PeproTech; purchased PeproTech (Rocky Hill, N.J.)
T1 sequence (O14788 140-317): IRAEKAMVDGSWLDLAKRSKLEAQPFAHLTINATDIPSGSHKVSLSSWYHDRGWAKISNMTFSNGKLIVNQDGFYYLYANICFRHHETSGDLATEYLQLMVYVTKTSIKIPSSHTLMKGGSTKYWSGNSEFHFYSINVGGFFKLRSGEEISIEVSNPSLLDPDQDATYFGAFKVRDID
Method: (§1) ELISA experiments were generally performed as previously described (Uren et al., J. Biol. Chem. 275:4374-4382, 2000), with modifications depending on the sFRP binding partner to be tested. Typically, wells were coated with 0.5 or 1 μg of sFRP-1, blocked with BSA (0.2%, 1%, or 4%) and then incubated with putative binding partner overnight at room temperature. When investigating the binding of peptide/AP chimeras, after aspiration of bacterial broths, wells were washed and incubated with p-nitrophenolphosphate (pNPP). Color development was determined at 405 nm with an ELISA reader. For competition experiments, soluble peptides were preincubated with peptide/AP chimeras in bacterial broth for 30 min at room temperature prior to transfer into ELISA wells coated with sFRP-1 or BSA. When testing RANKL binding to sFRP-1, serial dilutions of soluble RANKL were assayed in replicate. Following overnight incubation at room temperature, RANKL solutions were aspirated and bound RANKL was detected by sequential incubations with primary antibody to RANKL, secondary antibody coupled with AP and pNPP. Similar experimental designs were employed when other TNFα family members were examined for binding to sFRPs, and when sFRP-1 derivatives or sFRP-2 were the binding targets for RANKL.
(§2) The possibility that sFRP-1 (SEQ ID NO: 3) and RANKL interact directly with each other was tested using an ELISA assay. […] RANKL was then incubated in these wells and in adjacent wells that had only been treated with BSA.

[2] = molecular target: T2, TRAIL (Homo sapiens, UniProt P50591); assay: ELISA of TRAIL binding to sFRP-2; details: ELISA format
T2 construct: For ELISA assays, recombinant soluble RANKL and TRAIL, and antibodies directed against these proteins were obtained from PeproTech; purchased PeproTech (Rocky Hill, N.J.)
Method: as §1, with “RANKL. […]” for “RANKL.”

[3] = tested on: RAW264.7 cells; assay: RANKL-independent (TNFα-dependent) osteoclast formation in RAW264.7+TNFα+TGFβ; format: cell-based
Method: The effect of sFRP-1 was assessed upon a RANKL-independent method of osteoclast formation using the monocyte/macrophage cell line RAW264.7 (Quinn et al., Journal of Bone and Mineral Research. 16, 1787-1794, 2001) and was compared with that of osteoprotegerin (FIG. 14).
(§3) The effect of bacterially expressed CRD was assessed in three different cell culture models of osteoclast formation. These were: (1) bone marrow cells+RANKL+M-CSF, (2) the macrophage/monocyte cell line RAW264.7+RANKL, and (3) RAW264.7+TNFα+TGFβ (Horwood et al., Journal of Immunology 166:4915-4921, 2001; Quinn et al., Journal of Bone and Mineral Research. 16, 1787-1794, 2001).

[4] = tested on: RAW264.7 cells; assay: RANKL-induced osteoclast formation in RAW264.7 cells; format: cell-based; details: RAW264.7+RANKL
Method: In some instances, experiments were performed either with adult mouse spleen cells or with RAW264.7 cells treated with M-CSF and RANKL as described in Quinn et al., Endocrinology 139:4424-4427, 1998. Where indicated, these assays were conducted in the presence or absence of splenic T cells. T cell fractions were prepared as described in Horwood et al., Journal of Clinical Investigation 101:595-603, 1998.
as §3

[5] = tested on: bone marrow cells; assay: Osteoclast formation in bone marrow cells+RANKL+M-CSF; format: cell-based
Method: as §3

[6] = molecular target: T3, RANKL (Mus musculus, UniProt O35235); assay: ELISA of soluble RANKL binding to wells coated with sFRP-1, sFRP-1 derivatives or sFRP-2; details: RANKL variant with amino-terminal sequence beginning with residue 158
T3 construct: For ELISA assays, recombinant soluble RANKL and TRAIL, and antibodies directed against these proteins were obtained from PeproTech; purchased PeproTech (Rocky Hill, N.J.)
T3 sequence (O35235 158-316): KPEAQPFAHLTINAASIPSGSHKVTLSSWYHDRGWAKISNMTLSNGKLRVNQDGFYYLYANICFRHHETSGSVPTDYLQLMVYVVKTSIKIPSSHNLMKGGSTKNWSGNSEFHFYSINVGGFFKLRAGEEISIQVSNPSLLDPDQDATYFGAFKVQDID
Method: as §1, §2

[7] = molecular target: TNFα (Homo sapiens, UniProt P01375); assay: ELISA of TNFα binding to sFRP-1; details: ELISA format
Method: as §1, with “RANKL. […]” for “RANKL.”

[8] = tested on: co-cultures of primary osteoblasts and bone marrow cells; assay: Osteoclastogenesis co-culture of primary osteoblasts and bone marrow cells (TRAP+ cells); format: cell-based, mouse; details: vitamin D3 (10^-8 M) and PGE2 (10^-7 M)
Method: Osteoblastic cells were prepared from the calvaria of newborn mice by digestion with 0.1% collagenase (Worthington Biochemical Co., Freefold, […]) and 0.2% dispase (Godo Shusei, Tokyo, Japan). Bone marrow and spleen cells were obtained from adult and from newborn mice, respectively (Udagawa et al., J. Exp. Med. 182: 1461-1468, 1995). Osteoblastic cells were co-cultured with bone marrow or spleen cells as described previously (Udagawa et al., J. Exp. Med. 182: 1461-1468, 1995). In short, primary osteoblastic cells (2×10^4/well) and nucleated spleen cells (1×10^6/well) or marrow cells (5×10^5/well) were co-cultured in 48-well plates (Corning Glass Inc., Corning, N.Y.) with 0.4 mL of α-MEM (GIBCO/BRL, Grand Island, N.Y.) containing 10% fetal bovine serum (Cytosystems, Castle Hill, NSW, Australia) in the presence of test chemicals. Cultures were incubated in quadruplicate and cells were replenished on day 3 with fresh medium. Osteoclast formation was evaluated after culturing for 6-7 days. Adherent cells were fixed and stained for tartrate-resistant acid phosphatase (TRAP), and the number of TRAP-positive osteoclasts was scored as described (Udagawa et al., J. Exp. Med. 182: 1461-1468, 1995). For TRAP staining, adherent cells were fixed with 4% formaldehyde in PBS for 3 minutes. After treatment with ethanol-acetone (50/50, vol/vol) for 1 minute, the well surface was air dried and incubated for 10 minutes at room temperature in an acetate buffer (0.1 M sodium acetate, pH 5.0) containing 0.01% naphthol AS-MX phosphate (Sigma) as a substrate and 0.03% red violet LB salt (Sigma) as a stain for the reaction product in the presence of 50 mM sodium tartrate. TRAP-positive cells appeared dark red, and those with three or more nuclei were scored as multinucleated and considered as osteoclasts. […] CTR expression was determined either by autoradiography with ^125I-salmon calcitonin or by immunohistochemical localization using an array of antibodies we have developed as described by Quinn et al., Bone 25:1-8, 1999.

Sequence of TNFα (P01375 77-233 limits assumed, species assumed): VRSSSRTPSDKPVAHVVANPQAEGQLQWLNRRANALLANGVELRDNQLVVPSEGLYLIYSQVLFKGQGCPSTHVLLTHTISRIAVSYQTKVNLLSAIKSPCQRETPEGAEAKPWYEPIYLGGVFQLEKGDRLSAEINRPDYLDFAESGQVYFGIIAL
T2 sequence (P50591 39-281 limits assumed, species assumed): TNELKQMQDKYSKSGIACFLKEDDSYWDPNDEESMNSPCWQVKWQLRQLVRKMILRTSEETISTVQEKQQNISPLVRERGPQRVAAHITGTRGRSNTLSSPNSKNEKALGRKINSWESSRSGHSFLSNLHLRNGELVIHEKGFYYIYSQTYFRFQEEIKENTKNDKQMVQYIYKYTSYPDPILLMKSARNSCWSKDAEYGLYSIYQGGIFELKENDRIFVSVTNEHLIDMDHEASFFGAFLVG

| Molecule | binding to RANKL [1] | binding to TRAIL [2] | effect on osteoclast formation ([3]; RAW264.7+TNFα+TGFβ, RANKL-independent) | effect on osteoclast formation [4] | effect on osteoclast formation [5] | binding to a derivative of RANKL lacking the A-C2 motif [6] | binding to TNFα [7] | effect on TNFα-dependent osteoclast formation ([3]; present during the first three days of culture) | reduction of the number of multinucleated TRAP+ cells ([8]; 300 ng/mL) [%] | reduction of the number of multinucleated TRAP+ cells ([8]; 1.6 ug/mL) [%] | effect on osteoclast formation [8] |
| --- | --- | --- | --- | --- | --- | --- | --- | --- | --- | --- | --- |
| B1 | can bind | can bind |  |  |  |  |  |  |  |  |  |
| B2 | strong |  | mimicked the action of full-length sFRP-1 and with similar potency | mimicked the action of full-length sFRP-1 and with similar potency | mimicked the action of full-length sFRP-1 and with similar potency |  |  |  |  |  |  |
| B3 | bound specifically |  |  |  |  | observed binding | can bind | inhibited | 50 | 95 | dose-dependent inhibitory activity |
